Assay results published in US20250195685A1 (CAPSTAN THERAPEUTICS, published 2025).

Key:
[1] = target: T1, human CD8αα homodimer, recombinant protein (Acro Biosystems) (human, UniProt P01732 22-182); assay: BLI kinetics, F(ab) on biotinylated CD8α (SA-XT sensor), 1:1 fit, 30 °C
T1 construct: also called CD8αα antigen; biotinylated CD8α recombinant protein (CDA-H82E3)
Procedure: (§1) Biolayer interferometry kinetic assays were performed using a GatorBio Gator Plus BLI system. Kinetic buffer containing PBS plus 0.1% Tween 20 and 0.2% BSA was used for calculating the baseline. To measure the binding kinetics of anti-CD8α antibody fragment (Fab), streptavidin-immobilized SA-XT sensors (#160029, Gator Bio) were prehydrated in the kinetic buffer and loaded with […] biotinylated CD8α recombinant protein (CDA-H82E3, Acro Biosystems) at a spin speed of 400 rpm to a threshold response of 10 nm. The sensors were then incubated in the kinetic buffer for 300 s to acquire a baseline measurement prior to each association. […] The antigen-loaded sensors were incubated in the diluted solutions to capture Fab fragments for 300 s to record the association phase. Sensors were finally incubated in the kinetic buffer for 900 s to record the dissociation phase. The spin speed for all steps except the antigen loading step was 1000 rpm. The temperature of the performed assays was either 30° C. or 37° C. during the association and dissociation phases. Sensor data were baseline subtracted, and global curve fitting of the kinetic data from six different analyte concentrations at a 1:1 monovalent binding model was performed using GatorOne software (version v2.10) to determine kinetic rate constants (kₒₙ and koff) and equilibrium dissociation constants (KD) of the analyzed antibodies.

[2] = target: T1, human CD8αα homodimer, recombinant …; assay: BLI kinetics, F(ab) on biotinylated CD8α (SA-XT sensor), 1:1 fit, 37 °C [CONT'ED]
Procedure: as §1

[3] = target: T1, human CD8αα homodimer, recombinant …; assay: BLI kinetic rate analysis, Fab fragment (temperature not given)
Procedure: as §1

T1 sequence (P01732 22-182 limits assumed): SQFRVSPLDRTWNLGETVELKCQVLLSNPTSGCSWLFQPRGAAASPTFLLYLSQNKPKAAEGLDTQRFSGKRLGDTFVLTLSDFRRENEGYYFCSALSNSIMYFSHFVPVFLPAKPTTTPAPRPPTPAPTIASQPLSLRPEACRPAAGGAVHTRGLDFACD

Row | Binder | Kd [1] [nM] | koff [1] [s⁻¹] | kon [1] [M⁻¹ s⁻¹] | Kd [2] [nM] | koff [2] [s⁻¹] | kon [2] [M⁻¹ s⁻¹] | Kd [3] [nM] | koff [3] [s⁻¹] | kon [3] [M⁻¹ s⁻¹]
1 | CDB1017p (Fab, V domains shown, CDB1017p [sic]; also called CBD1017p; mouse CT8 F(ab)) VH: EVQLQQSGPELVKPGASVKISCKASRYTFTDYNLHWVKLSHEKSLEWIGFIYPYNGGTGYNQKFKNKAKLTVDYSSSTAYMELRSLTSVDAAVYYCARDHRYNEGVSFDYWGQGTTLTVSS VL: NIVLTQSPASLAVSLGQRATISCRASESVDGFGNSFMNWYQQKPGQSPKLLIYLASNLESGVPARFSGSGSRTDFTLTIDPVEADDAATYYCQQNNEDPYTFGGGTKLEIK | 1.19 | 7.76e-05 | 65100 |  |  |  |  |  | 
2 | CBD1032 (Fab, V domains shown, also called h1017-H1/L1 F(ab)) VH: QVQLVQSGAEVKKPGASVKVSCKASRYTFTDYNLHWVRQAPGQGLEWMGFIYPYNGGTGYAQKFQGRVTMTRDTSTSTVYMELSSLRSEDTAVYYCARDHRYNEGVSFDYWGQGTTVTVSS VL: DIQMTQSPSSLSASVGDRVTITCRASESVDGFGNSFMNWYQQKPGKAPKLLIYLASNLESGVPSRFSGSGSGTDFTLTISSLQPEDFATYYCQQNNEDPYTFGQGTKLEIK | 1.84 | 9.45e-05 | 51500 | 1.59 | 5.35e-05 | 33700 |  |  | 
3 | CBD1382 (Fab, V domains shown) VH: QVQLVQSGAEVKKPGASVKVSCKASRYTFTDYNLHWVRQAPGQGLEWMGFIYPYAGGTGYAQKFQGRVTMTVDTSTSTAYMELSSLRSEDTAVYYCARDHRYNEGVSFDYWGQGTTVTVSS VL: DIQLTQSPSSLSASVGDRATITCRASESVDGFGNSFMNWYQQKPGKAPKLLIYLASNLESGVPSRFSGSGSGTDFTLTISSVQPEDFATYYCQQNNEDPYTFGQGTKLEIK |  |  |  |  |  |  | 0.86 | 6.91e-05 | 80300
4 | CBD1039 (Fab, V domains shown, also called h1017-H5/L2 F(ab)) VH: QVQLVQSGAEVKKPGASVKISCKASRYTFTDYNLHWVRQAPGQGLEWIGFIYPYNGGTGYAQKFQGRATLTVDYSTSTAYMELSSLRSEDTAVYYCARDHRYNEGVSFDYWGQGTTLTVSS VL: DIQLTQSPSSLSASVGDRATITCRASESVDGFGNSFMNWYQQKPGKAPKLLIYLASNLESGVPSRFSGSGSGTDFTLTISSVQPEDFATYYCQQNNEDPYTFGQGTKLEIK | 3.11 | 0.000157 | 50400 | 4.59 | 9.27e-05 | 20200 |  |  | 
5 | CBD1381 (Fab, V domains shown) VH: QVQLVQSGAEVKKPGASVKVSCKASRYTFTDYNLHWVRQAPGQGLEWMGFIYPYQGGTGYAQKFQGRVTMTVDTSTSTAYMELSSLRSEDTAVYYCARDHRYNEGVSFDYWGQGTTVTVSS VL: DIQLTQSPSSLSASVGDRATITCRASESVDGFGNSFMNWYQQKPGKAPKLLIYLASNLESGVPSRFSGSGSGTDFTLTISSVQPEDFATYYCQQNNEDPYTFGQGTKLEIK |  |  |  |  |  |  | 1.22 | 9.59e-05 | 78600
6 | CBD1036 (Fab, V domains shown, also called h1017-H3/L3 F(ab)) VH: QVQLVQSGAEVKKPGASVKISCKASRYTFTDYNLHWVRQAPGQGLEWIGFIYPYNGGTGYAQKFQGRATLTVDTSTSTAYMELSSLRSEDTAVYYCARDHRYNEGVSFDYWGQGTTLTVSS VL: DIQLTQSPSSLSASVGDRATITCRASESVDGFGNSFMNWYQQKPGKAPKLLIYLASNLESGVPSRFSGSGSRTDFTLTISSVQPEDFATYYCQQNNEDPYTFGQGTKLEIK | 6.16 | 0.000207 | 33700 | 1.68 | 0.000194 | 117000 |  |  | 
7 | CBD1445 Fab (VL D30A of CBD1033) (Fab, V domains shown) VH: QVQLVQSGAEVKKPGASVKVSCKASRYTFTDYNLHWVRQAPGQGLEWMGFIYPYNGGTGYAQKFQGRVTMTVDTSTSTAYMELSSLRSEDTAVYYCARDHRYNEGVSFDYWGQGTTVTVSS VL: DIQLTQSPSSLSASVGDRATITCRASESVAGFGNSFMNWYQQKPGKAPKLLIYLASNLESGVPSRFSGSGSGTDFTLTISSVQPEDFATYYCQQNNEDPYTFGQGTKLEIK |  |  |  |  |  |  | 15.6 | 0.00048 | 30700
8 | CBD1380 (Fab, V domains shown) VH: QVQLVQSGAEVKKPGASVKVSCKASRYTFTDYNLHWVRQAPGQGLEWMGFIYPYSGGTGYAQKFQGRVTMTVDTSTSTAYMELSSLRSEDTAVYYCARDHRYNEGVSFDYWGQGTTVTVSS VL: DIQLTQSPSSLSASVGDRATITCRASESVDGFGNSFMNWYQQKPGKAPKLLIYLASNLESGVPSRFSGSGSGTDFTLTISSVQPEDFATYYCQQNNEDPYTFGQGTKLEIK |  |  |  |  |  |  | 1.93 | 0.000116 | 59900
9 | CBD1444 Fab (VL D30S of CBD1033) (Fab, V domains shown) VH: QVQLVQSGAEVKKPGASVKVSCKASRYTFTDYNLHWVRQAPGQGLEWMGFIYPYNGGTGYAQKFQGRVTMTVDTSTSTAYMELSSLRSEDTAVYYCARDHRYNEGVSFDYWGQGTTVTVSS VL: DIQLTQSPSSLSASVGDRATITCRASESVSGFGNSFMNWYQQKPGKAPKLLIYLASNLESGVPSRFSGSGSGTDFTLTISSVQPEDFATYYCQQNNEDPYTFGQGTKLEIK |  |  |  |  |  |  | 7.69 | 0.000196 | 25500
10 | CBD1443 Fab (VL D30E of CBD1033) (Fab, V domains shown) VH: QVQLVQSGAEVKKPGASVKVSCKASRYTFTDYNLHWVRQAPGQGLEWMGFIYPYNGGTGYAQKFQGRVTMTVDTSTSTAYMELSSLRSEDTAVYYCARDHRYNEGVSFDYWGQGTTVTVSS VL: DIQLTQSPSSLSASVGDRATITCRASESVEGFGNSFMNWYQQKPGKAPKLLIYLASNLESGVPSRFSGSGSGTDFTLTISSVQPEDFATYYCQQNNEDPYTFGQGTKLEIK |  |  |  |  |  |  | 10 | 0.000284 | 28400
11 | CBD1038 (Fab, V domains shown, also called h1017-H4/L3 F(ab)) VH: QVQLVQSGAEVKKPGASVKVSCKASRYTFTDYNLHWVRQAPGQGLEWMGFIYPYNGGTGYAQKFQGRVTMTVDYSTSTAYMELSSLRSEDTAVYYCARDHRYNEGVSFDYWGQGTTVTVSS VL: DIQLTQSPSSLSASVGDRATITCRASESVDGFGNSFMNWYQQKPGKAPKLLIYLASNLESGVPSRFSGSGSRTDFTLTISSVQPEDFATYYCQQNNEDPYTFGQGTKLEIK | 2.31 | 0.000146 | 63300 | 7.42 | 0.00014 | 18900 |  |  | 
12 | CBD1034 (Fab, V domains shown, also called h1017-H2/L3 F(ab)) VH: QVQLVQSGAEVKKPGASVKVSCKASRYTFTDYNLHWVRQAPGQGLEWMGFIYPYNGGTGYAQKFQGRVTMTVDTSTSTAYMELSSLRSEDTAVYYCARDHRYNEGVSFDYWGQGTTVTVSS VL: DIQLTQSPSSLSASVGDRATITCRASESVDGFGNSFMNWYQQKPGKAPKLLIYLASNLESGVPSRFSGSGSRTDFTLTISSVQPEDFATYYCQQNNEDPYTFGQGTKLEIK | 9.9 | 0.000204 | 20900 | 1.82 | 0.000187 | 103000 |  |  | 
13 | CBD1040 (Fab, V domains shown, also called h1017-H5/L3 F(ab)) VH: QVQLVQSGAEVKKPGASVKISCKASRYTFTDYNLHWVRQAPGQGLEWIGFIYPYNGGTGYAQKFQGRATLTVDYSTSTAYMELSSLRSEDTAVYYCARDHRYNEGVSFDYWGQGTTLTVSS VL: DIQLTQSPSSLSASVGDRATITCRASESVDGFGNSFMNWYQQKPGKAPKLLIYLASNLESGVPSRFSGSGSRTDFTLTISSVQPEDFATYYCQQNNEDPYTFGQGTKLEIK | 6.07 | 0.00017 | 28000 | 7.39 | 0.000103 | 14000 |  |  | 
14 | CBD1035 (Fab, V domains shown, also called h1017-H3/L2 F(ab)) VH: QVQLVQSGAEVKKPGASVKISCKASRYTFTDYNLHWVRQAPGQGLEWIGFIYPYNGGTGYAQKFQGRATLTVDTSTSTAYMELSSLRSEDTAVYYCARDHRYNEGVSFDYWGQGTTLTVSS VL: DIQLTQSPSSLSASVGDRATITCRASESVDGFGNSFMNWYQQKPGKAPKLLIYLASNLESGVPSRFSGSGSGTDFTLTISSVQPEDFATYYCQQNNEDPYTFGQGTKLEIK | 3.07 | 0.000144 | 46900 | 8.02 | 9.12e-05 | 11400 |  |  | 
15 | CBD1037 (Fab, V domains shown, also called h1017-H4/L2 F(ab)) VH: QVQLVQSGAEVKKPGASVKVSCKASRYTFTDYNLHWVRQAPGQGLEWMGFIYPYNGGTGYAQKFQGRVTMTVDYSTSTAYMELSSLRSEDTAVYYCARDHRYNEGVSFDYWGQGTTVTVSS VL: DIQLTQSPSSLSASVGDRATITCRASESVDGFGNSFMNWYQQKPGKAPKLLIYLASNLESGVPSRFSGSGSGTDFTLTISSVQPEDFATYYCQQNNEDPYTFGQGTKLEIK | 1.72 | 0.000114 | 66000 | 1.27 | 9.71e-05 | 76800 |  |  | 
16 | CBD1622 Fab (VL D30S and VH N55Q of CBD1033) (Fab, V domains shown, also called D30S and N55Q) VH: QVQLVQSGAEVKKPGASVKVSCKASRYTFTDYNLHWVRQAPGQGLEWMGFIYPYQGGTGYAQKFQGRVTMTVDTSTSTAYMELSSLRSEDTAVYYCARDHRYNEGVSFDYWGQGTTVTVSS VL: DIQLTQSPSSLSASVGDRATITCRASESVSGFGNSFMNWYQQKPGKAPKLLIYLASNLESGVPSRFSGSGSGTDFTLTISSVQPEDFATYYCQQNNEDPYTFGQGTKLEIK |  |  |  |  |  |  | 2.91 | 9.97e-05 | 34300
